This is an account of results in patent US20240132578A1.

Some results are limits rather than exact numbers.

What all share (test): cell-based or functional assay
Experiment [1] has as its target HIV-1 JR-CSF Env T297A (HIV-1 (isolate JR-CSF, clade B)) (UniProt P20871).
The target of experiment [2] is HIV-1 93UG077 envelope glycoprotein (Env), clade A pseudovirus (HIV-1).
Experiment [3] deals with HIV-1 Env of isolate APV-13 (Clade B) (HIV-1).
Experiment [4] concerns the target HIV-1 Env of isolate APV-17 (Clade B) (HIV-1).
Experiment [5] concerns the target HIV-1 MGRM-D-018 Env (HIV-1 isolate MGRM-D-018 (clade D)).
For experiment [6], the target named is HIV-1 JR-CSF Env R350A (HIV-1 isolate JR-CSF) (UniProt P20871).
The target of experiment [7] is HIV-1 ADA envelope glycoprotein (Env), on pseudovirus (HIV-1 isolate ADA).
Experiment [8] has as its target HIV-1 Env of pseudovirus CAAN (HIV-1).
Experiment [9] concerns the target HIV-1 Env of pseudovirus DU156 (HIV-1).
Experiment [10] concerns the target HIV-1 JR-FL Env E168K, on pseudovirus (HIV-1 isolate JR-FL (clade B)).
The target in experiment [11] is HIV-1 envelope glycoprotein (Env) of isolate MG RM-A-007 (HIV-1).
The target in experiment [12] is HIV-1 Env of isolate MGRM-C-028 (clade C pseudovirus) (HIV-1).
Experiment [13] concerns the target HIV-1 Env of isolate 92BR020 (subtype B), on pseudovirus (HIV-1).
Experiment [14] deals with HIV-1 Env of isolate 93TH305 (subtype B), on pseudovirus (HIV-1).
The target of experiment [15] is HIV-1 Env of isolate MGRM-Chronic-B-018 (subtype B), on pseudovirus (HIV-1).
Experiment [16] addresses HIV-1 Env of isolate JRFL (subtype B), on pseudovirus (HIV-1).
Experiment [17] addresses HIV-1 Env of isolate MG RM-D-012 (subtype D) (HIV-1).
For experiment [18], the target named is HIV-1 Env of isolate MG RM-D-002 (subtype D) (HIV-1).
The target of experiment [19] is HIV-1 Env of isolate 92UG024 (subtype D) (HIV-1).
Experiment [20] concerns the target HIV-1 Env of isolate MGRM-F1-010 (subtype F) (HIV-1).
In experiment [21] the target is HIV-1 Env of isolate 6535.3 (subtype B), on pseudovirus (HIV-1).
Experiment [22] concerns the target HIV-1 Env of isolate MGRM-Chronic-B-008 (subtype B), on pseudovirus (HIV-1).
Experiment [23] concerns the target HIV-1 Env of isolate MGRM-A-012 (pseudovirus) (HIV-1).
The target in experiment [24] is HIV-1 Env of isolate MG RM-D-014 (subtype D) (HIV-1).
Experiment [25] concerns the target HIV-1 Env of isolate 92UG114 (subtype D) (HIV-1).
For experiment [26], the target named is HIV-1 Env of isolate MGRM-Chronic-B-023 (subtype B), on pseudovirus (HIV-1).
In experiment [27] the target is HIV-1 Env of isolate MGRM-A-011 (pseudovirus) (HIV-1).
For experiment [28], the target named is HIV-1 Env of isolate MGRM-C-025 (clade C pseudovirus) (HIV-1).
In experiment [29] the target is HIV-1 Env of isolate MG RM-D-024 (subtype D) (HIV-1).
In experiment [30] the target is HIV-1 MGRM-D-018 envelope glycoprotein (Env) on virus (HIV-1, clade D, isolate MGRM-D-018).
Experiment [31] deals with HIV-1 92RW020 envelope glycoprotein (Env) on virus (HIV-1, clade A, isolate 92RW020).
The target in experiment [32] is HIV-1 MGRM-A-010 envelope glycoprotein (Env) on virus (HIV-1, clade A, isolate MGRM-A-010).
Experiment [33] has as its target HIV-1 MGRM-A-010 envelope glycoprotein (Env) (HIV-1).
Experiment [34] addresses HIV-1 JR-CSF Env N386A (HIV-1 isolate JR-CSF) (UniProt P20871).
For experiment [35], the target named is HIV-1 envelope glycoprotein (Env) of isolate APV17 (HIV-1).
The target in experiment [36] is HIV-1 envelope glycoprotein (Env) of isolate MGRM-AG-005 (HIV-1).
Experiment [37] addresses HIV-1 MGRM-D-001 Env (pseudovirus) (HIV-1).
The target of experiment [38] is HIV-1 Env of isolate MGRM-C-026 (clade C) (HIV-1).

As to 4858_P08 (PGT-123) (antibody), in [1], the Fold IC50 increase relative to wild-type was determined as 0.3 fold. Besides, in experiment [2], the IC50, pseudovirus neutralization is 0.0303 µg/mL; the IC80 (pseudovirus neutralization) stood at 0.143 µg/mL; the IC90 (pseudovirus neutralization) amounted to 0.35 µg/mL; the IC95 (pseudovirus neutralization) was found to be 0.78 µg/mL.
Take b12 (antibody): the IC90 (neutralization of pseudovirus) in [3] and in experiment [4] was over 50 µg/mL throughout.
In experiment [5], 4838_L06 (PGT-121) (antibody) came in with a Neutralization IC80 of 0.0231 µg/mL, a Neutralization IC90 of 0.0414 µg/mL and a Neutralization IC95 of 0.0715 µg/mL.
For the substance 5136_H01 (PGT-131) (antibody), in [6], the Fold IC50 increase relative to wild-type worked out at 1.3 fold.
Turning to 1443_C16 (PG16) (TCN-116) (antibody), the IC90 (neutralization of pseudovirus) in experiment [3] and in experiment [4] was over 50 µg/mL in each case. In addition, the IC50 (ug/ml), pseudovirus neutralization, TZM-bl assay in [7] turned out to be 0.004 µg/mL; in experiment [10], 0.006 µg/mL. Also, the values for the IC50, pseudovirus neutralization (TZM-bl assay) in experiment [8] and in [9] were 6.37 µg/mL and under 0.01 µg/mL, respectively.
PGV04 (antibody) came in with an IC50 in [11] of 7.21 µg/mL. Moreover, the IC50 (µg/mL), single-round pseudovirus neutralization in [12] was 0.149 µg/mL; in experiment [28] it was over 50 µg/mL. The IC50, single-round pseudovirus neutralization in [13] was found to be 0.25 µg/mL; in experiment [14] it was 0.255 µg/mL; in [15], 0.164 µg/mL; in [16], 0.032 µg/mL; in experiment [21], 0.757 µg/mL; in [22], 0.166 µg/mL. Besides, the IC50, single-round pseudovirus neutralization in [26] was determined as 0.139 µg/mL. In addition, the IC50 (µg/mL), pseudovirus neutralization worked out at 0.125 µg/mL in experiment [17]; 0.322 µg/mL in experiment [18]; 0.201 µg/mL in experiment [19]; 0.184 µg/mL in [20]; 0.225 µg/mL in experiment [23]; 0.194 µg/mL in experiment [24]. Further, the IC50 (µg/mL), pseudovirus neutralization in [25] was 0.461 µg/mL; in [27], 0.09 µg/mL; in [29], over 50 µg/mL.
On to 4877_D15 (PGT-122) (antibody), for which, in [30], the Neutralization IC80 was 0.035 µg/mL, the Neutralization IC90 is 0.0674 µg/mL, the Neutralization IC95 came to 0.125 µg/mL and the neutralization IC50 is 0.0115 µg/mL. In [31], the Neutralization IC80 turned out to be 0.0407 µg/mL, the Neutralization IC90 is 0.113 µg/mL, the Neutralization IC95 is 0.289 µg/mL and the neutralization IC50 stood at 0.0072 µg/mL. In experiment [32], this substance had a Neutralization IC80 of over 10 µg/mL, a Neutralization IC90 of over 10 µg/mL, a Neutralization IC95 of over 10 µg/mL and a neutralization IC50 of 1.68 µg/mL.
5343_B08 (PGT-135) (antibody) registered a Fold IC50 increase relative to wild-type in experiment [1] of over 30 fold.
Take 5329_C19 (PGT-136) (antibody): in experiment [33], the Neutralization IC80 was over 10 µg/mL, the Neutralization IC90 is over 10 µg/mL, the Neutralization IC95 is over 10 µg/mL and the neutralization IC50 is over 10 µg/mL.
On to 5147_N06 (PGT-130) (antibody), for which the values for the Fold IC50 increase relative to wild-type in experiment [6] and in [34] were 0.5 fold and 0.1 fold, respectively.
As for 5141_B17 (PGT-126) (antibody), in experiment [35], the Neutralization IC80 came to 4.43 µg/mL, the Neutralization IC90 was over 10 µg/mL, the Neutralization IC95 was over 10 µg/mL and the neutralization IC50 came out at 0.501 µg/mL. Also, in experiment [36], the Neutralization IC80 was over 10 µg/mL, the Neutralization IC90 is over 10 µg/mL, the Neutralization IC95 was over 10 µg/mL and the neutralization IC50 is 1.35 µg/mL.
5123_A06 (PGT-125) (antibody): in experiment [37], the Neutralization by PGT-125, IC50 was 2.31 µg/mL; the Neutralization by PGT-125, IC80 was over 10 µg/mL; the Neutralization by PGT-125, IC90 was over 10 µg/mL; the Neutralization by PGT-125, IC95 was over 10 µg/mL. Also, the Fold IC50 increase relative to wild-type in [34] amounted to 0.8 fold.
Take 1496_C09 (PG9) (TCN-109) (antibody): in [11], the IC50 was 1.06 µg/mL. Also, the IC50 (µg/mL), single-round pseudovirus neutralization was 0.067 µg/mL in experiment [12] and 0.148 µg/mL in experiment [28]. The IC50, single-round pseudovirus neutralization amounted to 8.12 µg/mL in [14]; 0.216 µg/mL in [15]; 1.05 µg/mL in [21]; 8.78 µg/mL in experiment [22]; 0.027 µg/mL in experiment [26]. In [7], this substance came in with an IC50 (ug/ml), pseudovirus neutralization, TZM-bl assay of 0.2 µg/mL. In [38], this substance displayed a neutralization IC50 of 0.113 µg/mL. Also, the IC50 (µg/mL), pseudovirus neutralization in [17] came out at 16.2 µg/mL; in [18], 0.021 µg/mL; in experiment [19], 1.86 µg/mL; in experiment [20] it was 0.012 µg/mL; in experiment [23], 19.3 µg/mL; in [24] it was 0.023 µg/mL. Also, the IC50 (µg/mL), pseudovirus neutralization in experiment [25] is 40.6 µg/mL; in experiment [27], 0.033 µg/mL; in [29], 0.038 µg/mL.

The IC50 is the concentration that gives 50% inhibition. High values mean weaker potency in that assay, low ones greater potency in that assay.
